{
  "source": "paper PMC10450186",
  "binders": {"B1": {"name": "60-nt ssDNA (ssDNA)", "DNA": "TATTCATTGTTTTACCTATTGTACCTTATTCTTAATTCATTTTACTAATCATTTACGAGT"}, "B2": {"name": "30-nt ssDNA (dT30) (ssDNA)", "DNA": "TTTTTTTTTTTTTTTTTTTTTTTTTTTTTT"}, "B3": {"name": "14-nt ssDNA (dT14) (ssDNA)", "DNA": "TTTTTTTTTTTTTT"}, "B4": {"name": "PTJ (primer-template junction) (mixed)", "DNA 1": "TGGCGACGGCAGCGAGGCAGGTCAGGAATTCTGATC", "DNA 2": "GATCAGAATTCCTGACCT"}, "B5": {"name": "Fork (Y-shape) (mixed)", "DNA 1": "GCCAGGGACGAGGTGAACCTGCAGGTGGGCGGCTACTACTTTTTTTTTTTTTTTTTTTTTTTTTTTTTTTTTTTTTTTT", "DNA 2": "TTTTTTTTTTTTTTTTTTTTTTTTTTTTTTTTTTTTTTTAGTAGTAGCCGCCCACCTGCAGGTTCACCTCGTCCCTGGC"}, "B6": {"name": "Biotinylated 60-nt ssDNA (ssDNA)", "DNA": "TATTCATTGTTTTACCTATTGTACCTTATTCTTAATTCATTTTACTAATCATTTACGAGT"}, "B7": {"name": "Biotinylated 30-nt ssDNA (ssDNA)", "DNA": "TTTTTTTTTTTTTTTTTTTTTTTTTTTTTT"}, "B8": {"name": "Biotinylated 14-nt ssDNA (ssDNA)", "DNA": "TTTTTTTTTTTTTT"}, "B9": {"name": "R-loop (mixed)", "DNA 1": "GCCAGGGACGAGGTGAACCTGCAGGTGGGCGGCTACTACTTAGATGTCATCCGAGGCTTATTGGTAGAATTCGGCAGCGTCATGCGACGGC", "DNA 2": "GCCGTCGCATGACGCTGCCGAATTCTACCACGCGATTCATACCTGTCGTGCCAGCTGCTTTGCCCACCTGCAGGTTCACCTCGTCCCTGGC", "RNA": "GCAGCUGGCACGACAGGUAUGAAUC"}},
  "key": {"[1]": {"target": "T1, RPA heterotrimer WT (RPA70/RPA32/RPA14) (human, UniProt P27694;P15927;P35244 1-616;1-270;1-121)", "T1 sequence (P27694 whole entry, chain 1 of 3)": "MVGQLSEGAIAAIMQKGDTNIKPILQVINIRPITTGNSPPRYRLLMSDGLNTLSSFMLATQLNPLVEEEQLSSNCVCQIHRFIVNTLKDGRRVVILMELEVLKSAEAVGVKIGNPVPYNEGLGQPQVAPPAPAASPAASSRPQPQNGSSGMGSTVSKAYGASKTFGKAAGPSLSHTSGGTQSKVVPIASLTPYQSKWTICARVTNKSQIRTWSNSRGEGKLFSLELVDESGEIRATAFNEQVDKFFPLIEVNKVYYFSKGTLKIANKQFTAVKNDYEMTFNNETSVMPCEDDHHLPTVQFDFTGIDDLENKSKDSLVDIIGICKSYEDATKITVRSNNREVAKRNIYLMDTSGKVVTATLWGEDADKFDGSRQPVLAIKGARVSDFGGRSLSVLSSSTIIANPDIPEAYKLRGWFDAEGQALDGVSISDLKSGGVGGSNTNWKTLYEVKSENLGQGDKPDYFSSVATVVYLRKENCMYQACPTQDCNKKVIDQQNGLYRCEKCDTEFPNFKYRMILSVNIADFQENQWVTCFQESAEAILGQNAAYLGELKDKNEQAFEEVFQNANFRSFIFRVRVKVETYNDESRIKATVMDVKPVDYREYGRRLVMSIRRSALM", "T1 sequence (P15927 whole entry, chain 2 of 3)": "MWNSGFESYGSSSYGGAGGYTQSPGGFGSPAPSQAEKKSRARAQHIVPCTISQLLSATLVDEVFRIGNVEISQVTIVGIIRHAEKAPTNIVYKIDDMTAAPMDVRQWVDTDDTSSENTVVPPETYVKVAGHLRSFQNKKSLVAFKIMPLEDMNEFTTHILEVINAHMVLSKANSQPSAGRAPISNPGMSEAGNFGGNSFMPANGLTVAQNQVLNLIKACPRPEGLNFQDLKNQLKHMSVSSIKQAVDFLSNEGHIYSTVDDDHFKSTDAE", "T1 sequence (P35244 whole entry, chain 3 of 3)": "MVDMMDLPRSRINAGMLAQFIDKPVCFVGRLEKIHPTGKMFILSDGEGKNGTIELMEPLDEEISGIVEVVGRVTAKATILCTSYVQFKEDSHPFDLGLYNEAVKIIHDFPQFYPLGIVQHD", "assay": "EMSA; three shifted bands; EMSA: 50 mM Tris-HCl pH 7.5, 50 mM NaCl, 1 mM DTT, 0.01% Tween-20, 23°C, 10 nM labeled DNA; NSMF-DNA gels 1.5% agarose in 1xTBE at 4°C", "details": "protein: recombinant; tags: untagged; 7xHis version also made; copies: 1;1;1; label: 5' Cy5"}, "pmRPA-S33D [2]": {"target": "T2, pmRPA-S33D (human, UniProt P27694;P15927;P35244 1-616;1-270;1-121, S33D;RPA32)", "T2 sequence (P27694 whole entry, stated change not applied, chain 1 of 3)": "as the sequence (P27694 whole entry, chain 1 of 3) above", "T2 sequence (P15927 whole entry S33D, chain 2 of 3)": "as the sequence (P15927 whole entry, chain 2 of 3) above, with S33D counted along it", "T2 sequence (P35244 whole entry, stated change not applied, chain 3 of 3)": "as the sequence (P35244 whole entry, chain 3 of 3) above", "assay": "EMSA; two shifted bands; EMSA: 50 mM Tris-HCl pH 7.5, 50 mM NaCl, 1 mM DTT, 0.01% Tween-20, 23°C, 10 nM labeled DNA; NSMF-DNA gels 1.5% agarose in 1xTBE at 4°C", "details": "protein: recombinant; tags: 7xHis; copies: 1;1;1; label: 5' Cy5"}, "DBM-RPA": {"target": "DBM-RPA (human, UniProt P27694;P15927;P35244 1-616;1-270;1-121, W107A;F135A;RPA32)", "sequence (P27694 whole entry, stated change not applied, chain 1 of 3)": "as the sequence (P27694 whole entry, chain 1 of 3) above", "sequence (P15927 whole entry W107A/F135A, chain 2 of 3)": "as the sequence (P15927 whole entry, chain 2 of 3) above, with W107A, F135A counted along it", "sequence (P35244 whole entry, stated change not applied, chain 3 of 3)": "as the sequence (P35244 whole entry, chain 3 of 3) above", "assay": "EMSA; 25 nM; single molecule bound; EMSA: 50 mM Tris-HCl pH 7.5, 50 mM NaCl, 1 mM DTT, 0.01% Tween-20, 23°C, 10 nM labeled DNA; NSMF-DNA gels 1.5% agarose in 1xTBE at 4°C", "details": "protein: recombinant; copies: 1;1;1; label: 5' Cy5"}, "pmRPA-S33D [3]": {"target": "T2, pmRPA-S33D", "assay": "EMSA; one shifted band; EMSA: 50 mM Tris-HCl pH 7.5, 50 mM NaCl, 1 mM DTT, 0.01% Tween-20, 23°C, 10 nM labeled DNA; NSMF-DNA gels 1.5% agarose in 1xTBE at 4°C", "details": "protein: recombinant; tags: 7xHis; copies: 1;1;1; label: 5' Cy5"}, "[4]": {"target": "T1, RPA heterotrimer WT (RPA70/RPA32/RPA14)", "assay": "EMSA; two shifted bands up to 150 nM RPA; EMSA: 50 mM Tris-HCl pH 7.5, 50 mM NaCl, 1 mM DTT, 0.01% Tween-20, 23°C, 10 nM labeled DNA; NSMF-DNA gels 1.5% agarose in 1xTBE at 4°C", "details": "protein: recombinant; tags: untagged; 7xHis version also made; copies: 1;1;1; label: 5' Cy5"}, "[5]": {"target": "T1, RPA heterotrimer WT (RPA70/RPA32/RPA14)", "assay": "EMSA; single shifted band; EMSA: 50 mM Tris-HCl pH 7.5, 50 mM NaCl, 1 mM DTT, 0.01% Tween-20, 23°C, 10 nM labeled DNA; NSMF-DNA gels 1.5% agarose in 1xTBE at 4°C", "details": "protein: recombinant; tags: untagged; 7xHis version also made; copies: 1;1;1; label: 5' Cy5"}, "NSMF WT [6]": {"target": "T3, NSMF WT (UniProt Q6X4W1 1-530)", "T3 sequence": "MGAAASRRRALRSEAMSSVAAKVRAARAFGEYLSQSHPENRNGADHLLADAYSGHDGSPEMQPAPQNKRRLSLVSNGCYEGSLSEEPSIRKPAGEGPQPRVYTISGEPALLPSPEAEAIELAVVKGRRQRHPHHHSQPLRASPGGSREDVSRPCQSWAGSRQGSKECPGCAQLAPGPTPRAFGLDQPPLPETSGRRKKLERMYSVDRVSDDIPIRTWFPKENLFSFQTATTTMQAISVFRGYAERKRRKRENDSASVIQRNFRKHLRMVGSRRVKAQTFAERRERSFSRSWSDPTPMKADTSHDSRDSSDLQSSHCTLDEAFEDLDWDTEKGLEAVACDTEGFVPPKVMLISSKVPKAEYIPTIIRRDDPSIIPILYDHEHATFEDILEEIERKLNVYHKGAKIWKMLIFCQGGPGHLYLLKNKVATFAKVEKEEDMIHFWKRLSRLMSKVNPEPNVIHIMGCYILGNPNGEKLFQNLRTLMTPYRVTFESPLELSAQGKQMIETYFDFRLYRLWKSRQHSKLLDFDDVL", "assay": "EMSA; low affinity; EMSA: 50 mM Tris-HCl pH 7.5, 50 mM NaCl, 1 mM DTT, 0.01% Tween-20, 23°C, 10 nM labeled DNA; NSMF-DNA gels 1.5% agarose in 1xTBE at 4°C", "details": "protein: recombinant, tags: N-term 3xFLAG, C-term 10xHis (MBP cleaved)"}, "RPA-eGFP heterotrimer [7]": {"target": "T4, RPA-eGFP heterotrimer (human, UniProt P27694;P15927;P35244 1-616;1-270;1-121)", "T4 sequence (P27694 whole entry, chain 1 of 3)": "as the sequence (P27694 whole entry, chain 1 of 3) above", "T4 sequence (P15927 whole entry, chain 2 of 3)": "as the sequence (P15927 whole entry, chain 2 of 3) above", "T4 sequence (P35244 whole entry, chain 3 of 3)": "as the sequence (P35244 whole entry, chain 3 of 3) above", "assay": "single-molecule photobleaching; three steps predominant; EMSA: 50 mM Tris-HCl pH 7.5, 50 mM NaCl, 1 mM DTT, 0.01% Tween-20, 23°C, 10 nM labeled DNA; NSMF-DNA gels 1.5% agarose in 1xTBE at 4°C", "details": "protein: recombinant; tags: 6xHis; eGFP at C-term of RPA70; copies: 1;1;1; label: 5' biotin"}, "RPA-eGFP heterotrimer [8]": {"target": "T4, RPA-eGFP heterotrimer", "assay": "single-molecule photobleaching; two steps predominant; EMSA: 50 mM Tris-HCl pH 7.5, 50 mM NaCl, 1 mM DTT, 0.01% Tween-20, 23°C, 10 nM labeled DNA; NSMF-DNA gels 1.5% agarose in 1xTBE at 4°C", "details": "protein: recombinant; tags: 6xHis; eGFP at C-term of RPA70; copies: 1;1;1; label: 5' biotin"}, "RPA-eGFP heterotrimer [9]": {"target": "T4, RPA-eGFP heterotrimer", "assay": "single-molecule fluorescence; EMSA: 50 mM Tris-HCl pH 7.5, 50 mM NaCl, 1 mM DTT, 0.01% Tween-20, 23°C, 10 nM labeled DNA; NSMF-DNA gels 1.5% agarose in 1xTBE at 4°C", "details": "protein: recombinant; tags: 6xHis; eGFP at C-term of RPA70; copies: 1;1;1; label: 5' biotin"}, "NSMF WT [10]": {"target": "T3, NSMF WT", "assay": "EMSA; up to 3000 nM NSMF; EMSA: 50 mM Tris-HCl pH 7.5, 50 mM NaCl, 1 mM DTT, 0.01% Tween-20, 23°C, 10 nM labeled DNA; NSMF-DNA gels 1.5% agarose in 1xTBE at 4°C", "details": "protein: recombinant; tags: N-term 3xFLAG, C-term 10xHis (MBP cleaved); label: Cy3 on Oligo1, Cy5 on RNA oligo; bubble 1:2, RNA strand 3 paired to strand 2 in bubble"}},
  "data": [
    {"binder": "B1", "values": [
      {"measurement": "binding result", "setting": "[1]", "value": "binds"},
      {"measurement": "binding result", "setting": "pmRPA-S33D [2]", "value": "binds"}
    ]},
    {"binder": "B2", "values": [
      {"measurement": "binding result", "setting": "DBM-RPA", "value": "binds"},
      {"measurement": "binding result", "setting": "pmRPA-S33D [3]", "value": "binds"},
      {"measurement": "binding result", "setting": "[4]", "value": "binds"}
    ]},
    {"binder": "B3", "values": [
      {"measurement": "binding result", "setting": "[5]", "value": "binds"}
    ]},
    {"binder": "B4", "values": [
      {"measurement": "binding result", "setting": "NSMF WT [6]; 18 bp duplex, 5' overhang 18 nt on strand 1", "value": "binds"}
    ]},
    {"binder": "B5", "values": [
      {"measurement": "binding result", "setting": "NSMF WT [6]; label: 5' Cy5 on strand 1, fork 1:2, two poly-dT arms", "value": "binds"}
    ]},
    {"binder": "B6", "values": [
      {"measurement": "binding result", "setting": "RPA-eGFP heterotrimer [7]", "value": "binds"}
    ]},
    {"binder": "B7", "values": [
      {"measurement": "binding result", "setting": "RPA-eGFP heterotrimer [8]", "value": "binds"}
    ]},
    {"binder": "B8", "values": [
      {"measurement": "binding result", "setting": "RPA-eGFP heterotrimer [9]", "value": "binds"}
    ]},
    {"binder": "B9", "values": [
      {"measurement": "binding result", "setting": "NSMF WT [10]", "value": "no binding"}
    ]}
  ]
}
